Assay results from publication PMC6768434.

Substrate: CC(NCCCC[C@H](N)C(=O)O)C(=O)O
Test: purified protein
Details: 50 mM Tris pH 8.0, 5 μM FAD, 25 μM enzyme, 37 °C, CEL 1-13 mM

B1: C-MnmC (Escherichia coli K-12) (protein)
chain: PCSAPWFNRTGSSKREAAIIGGGIASALLSLALLRRGWQVTLYCADEAPALGASGNRQGALYPLLSKHDEALNRFFSNAFTFARRFYDQLPVKFDHDWCGVTQLGWDEKSQHKIAQMLSMDLPAELAVAVEANAVEQITGVATNCSGITYPQGGWLCPAELTRNVLELAQQQGLQIYYQYQLQNLSRKDDCWLLNFAGDQQATHSVVVLANGHQISRFSQTSTLPVYSVAGQVSHIPTTPELAELKQVLCYDGYLTPQNPANQHHCIGASYHRGSEDTAYSEDDQQQNRQRLIDCFPQAQWAKEVDVSDKEARCGVRCATRDHLPMVGNVPDYEATLVEYASLAEQKDEAVSAPVFDDLFMFAALGSRGLCSAPLCAEILAAQMSDEPIPMDASTLAALNPNRLWVRKLLKGKAVKAG
B1 showed a Km of 4.3 ± 0.6 mM, a kcat of 0.003 ± 0.00015 s⁻¹ and a kcat/Km of 0.7 ± 0.1 M⁻¹ s⁻¹.

B2: MnmC (Escherichia coli K-12) (protein)
chain: MKHYSIQPANLEFNAEGTPVSRDFDDVYFSNDNGLEETRYVFLGGNQLEVRFPEHPHPLFVVAESGFGTGLNFLTLWQAFDQFREAHPQAQLQRLHFISFEKFPLTRADLALAHQHWPELAPWAEQLQAQWPMPLPGCHRLLLDEGRVTLDLWFGDINELTSQLDDSLNQKVDAWFLDGFAPAKNPDMWTQNLFNAMARLARPGGTLATFTSAGFVRRGLQDAGFTMQKRKGFGRKREMLCGVMEQTLPLPCSAPWFNRTGSSKREAAIIGGGIASALLSLALLRRGWQVTLYCADEAPALGASGNRQGALYPLLSKHDEALNRFFSNAFTFARRFYDQLPVKFDHDWCGVTQLGWDEKSQHKIAQMLSMDLPAELAVAVEANAVEQITGVATNCSGITYPQGGWLCPAELTRNVLELAQQQGLQIYYQYQLQNLSRKDDCWLLNFAGDQQATHSVVVLANGHQISRFSQTSTLPVYSVAGQVSHIPTTPELAELKQVLCYDGYLTPQNPANQHHCIGASYHRGSEDTAYSEDDQQQNRQRLIDCFPQAQWAKEVDVSDKEARCGVRCATRDHLPMVGNVPDYEATLVEYASLAEQKDEAVSAPVFDDLFMFAALGSRGLCSAPLCAEILAAQMSDEPIPMDASTLAALNPNRLWVRKLLKGKAVKAG
With B2 the Km was 5.2 ± 1.3 mM, the kcat was 0.000667 ± 6.67e-05 s⁻¹ and the kcat/Km was 0.133 ± 0.0167 M⁻¹ s⁻¹.
